B1: INTS3 (parent)
chain: EEITEESLEESVGKPLYLIFRNLC

Variants of: B1
Test: protein stability index of a GFP-peptide fusion (GPS, HEK-293T) (PSI 1-6); higher = more stable
Settings: c terminus: a fixed tail appended
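Note: lentivirally expressed fusions sorted by FACS into six bins by GFP to DsRed ratio, PSI derived from sequencing read proportions per bin multiplied by bin number.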

Variant | protein stability index
EYITEESLEESVGKPLYLIFRNLC | 1.69
EWITEESLEESVGKPLYLIFRNLC | 1.74
ETITEESLEESVGKPLYLIFRNLC | 2.68
EDITEESLEESVGKPLYLIFRNLC | 2.86
EIITEESLEESVGKPLYLIFRNLC | 1.91
EHITEESLEESVGKPLYLIFRNLC | 2.32
ESITEESLEESVGKPLYLIFRNLC | 2.58
EVITEESLEESVGKPLYLIFRNLC | 2.35
EGITEESLEESVGKPLYLIFRNLC | 2.56
EECTEESLEESVGKPLYLIFRNLC | 2.65
EETTEESLEESVGKPLYLIFRNLC | 2.9
EENTEESLEESVGKPLYLIFRNLC | 3.25
EEWTEESLEESVGKPLYLIFRNLC | 2.18
EESTEESLEESVGKPLYLIFRNLC | 2.84
EEYTEESLEESVGKPLYLIFRNLC | 2.1
EELTEESLEESVGKPLYLIFRNLC | 3
EEPTEESLEESVGKPLYLIFRNLC | 3.2
EEITEESCEESVGKPLYLIFRNLC | 3.3
EEITEESKEESVGKPLYLIFRNLC | 3.42
EEITEESREESVGKPLYLIFRNLC | 3.09
EEITEESFEESVGKPLYLIFRNLC | 2.57
EEITEESMEESVGKPLYLIFRNLC | 2.86
EEITEESHEESVGKPLYLIFRNLC | 3.26
EEITEESDEESVGKPLYLIFRNLC | 3.35

Variant | protein stability index
EEITEESNEESVGKPLYLIFRNLC | 3.34
EEITEESIEESVGKPLYLIFRNLC | 2.47
EEITEESLEESVGKPLYLIFRNLL | 2.16
EEITEESLEESVGKPLYLIFRNLK | 3.11
EEITEESLEESVGKPLYLIFRNLS | 2.55
EEITEESLEESVGKPLYLIFRNLD | 3.48
EEITEESLEESVGKPLYLIFRNLV | 1.68
EEITEESLEESVGKPLYLIFRNLG | 2.54
EEITEESLEESVGKPLYLIFRNLF | 2.99
EEITEESLEESVGKPLYLIFRNLQ | 2.19
EEITEESLEESVGKPLYLIFRNLI | 2.32
EEITEESLEESVGKPLYVIFRNLC | 2.7
EEITEESLEESVGKPLYWIFRNLC | 2.16
EEITEESLEESVGKPLYNIFRNLC | 3.38
EEITEESLEESVGKPLYYIFRNLC | 2.93
EEITEESLEESVGKPLYAIFRNLC | 2.92
EEITEESLEESVGKPLYHIFRNLC | 3.4
EEITEESLEESVGKPLYRIFRNLC | 2.82
EEITEESLEESVGKPLYQIFRNLC | 3.21
EEITEESLEESVGKPLYTIFRNLC | 3.37
EEITELSLEESVGKPLYLIFRNLC | 1.69
EEITECSLEESVGKPLYLIFRNLC | 1.83
EEITEQSLEESVGKPLYLIFRNLC | 2.56
EEITEGSLEESVGKPLYLIFRNLC | 2.38

Variant | protein stability index
EEITEFSLEESVGKPLYLIFRNLC | 2.23
EEITERSLEESVGKPLYLIFRNLC | 1.99
EEITESSLEESVGKPLYLIFRNLC | 2.27
EEITEEDLEESVGKPLYLIFRNLC | 2.87
EEITEECLEESVGKPLYLIFRNLC | 2.56
EEITEENLEESVGKPLYLIFRNLC | 2.98
EEITEEKLEESVGKPLYLIFRNLC | 2.55
EEITEEHLEESVGKPLYLIFRNLC | 3.13
EEITEELLEESVGKPLYLIFRNLC | 2.33
EEITEEVLEESVGKPLYLIFRNLC | 3.02
EEITEEWLEESVGKPLYLIFRNLC | 2.46
EEITEESLEESVGKPLYLIFYNLC | 2.03
EEITEESLEESVGKPLYLIFINLC | 1.63
EEITEESLEESVGKPLYLIFFNLC | 2.03
EEITEESLEESVGKPLYLIFKNLC | 2.61
EEITEESLEESVGKPLYLIFDNLC | 3.46
EEITEESLEESVGKPLYLIFLNLC | 1.9
EEITEESLEESVGKPLYLIFANLC | 2.77
EEITEESLEESVGKPLYLIFWNLC | 2.1
EEITEESLEELVGKPLYLIFRNLC | 2.51
EEITEESLEEGVGKPLYLIFRNLC | 2.9
EEITEESLEEMVGKPLYLIFRNLC | 2.8
EEITEESLEESVGKPLMLIFRNLC | 2.85
EEITEESLEESVGKPLTLIFRNLC | 3.22

Variant | protein stability index
EEITEESLEESVGKPLGLIFRNLC | 3.59
EEITEESLEESVGKPLNLIFRNLC | 3.46
EEITEESLEESVGKPLPLIFRNLC | 4.11
EEITEESLEESVGKPLDLIFRNLC | 4.25
EEITEESLEESVGAPLYLIFRNLC | 2.96
EEITEESLEESVGHPLYLIFRNLC | 3.2
EEITEESLEESVGMPLYLIFRNLC | 2.48
EEITEESLEESVGCPLYLIFRNLC | 3.5
EEITEESLEESVGDPLYLIFRNLC | 3.48
EEITEESLEESVGYPLYLIFRNLC | 2.47
EEITEESLEESVGFPLYLIFRNLC | 2.25
EEITEESLEESVGTPLYLIFRNLC | 3.38
EEITEESLEESVGGPLYLIFRNLC | 2.96
EEITEESLEESVGQPLYLIFRNLC | 3.19
EEITEESLEESVGWPLYLIFRNLC | 2.39
EEITEESLEESVGKPLYLIFRNEC | 3.98
EEITEESLEESVGKPLYLIFRNMC | 2.74
EEITEESLEESVGKPLYLIFRNTC | 3.4
EEITEESLEESVGKPLYLIFRNIC | 2.63
EEITEESLEESVGKPLYLIFRNSC | 3.67
EEITEESLEESVGKPLYLIFRNQC | 4.17
EEITEESLEESVGKPLYLIFRNPC | 3.82
EEITEESLEESVGKPLYLIFRNCC | 3.54
EEITEESLEESVGKPLYLIFRNVC | 3.39

Variant | protein stability index
EEITEESLEESVGKPLYLIFRNAC | 3.74
EEITEESLEESVGKPLYLIFRNHC | 3.19
EEITEESLEESEGKPLYLIFRNLC | 3.36
EEITEESLEESLGKPLYLIFRNLC | 2.5
EEITEESLEESTGKPLYLIFRNLC | 3.13
EEITEESLEESRGKPLYLIFRNLC | 2.86
EEITEESLEVSVGKPLYLIFRNLC | 2.09
EEITEESLEFSVGKPLYLIFRNLC | 1.92
EEITEESLEPSVGKPLYLIFRNLC | 2.36
EEITEESLEASVGKPLYLIFRNLC | 2.64
EEITEESLEISVGKPLYLIFRNLC | 1.77
EEITEESLEQSVGKPLYLIFRNLC | 2.67
EEITEESLELSVGKPLYLIFRNLC | 2.07
EEITEESLESSVGKPLYLIFRNLC | 2.79
EEITEESLEESVGKRLYLIFRNLC | 2.12
EEITEESLEESVGKKLYLIFRNLC | 1.93
EEITEESLEESVGKVLYLIFRNLC | 1.77
EEITEESLEESVGKFLYLIFRNLC | 1.97
EEITEESLEESVGKLLYLIFRNLC | 1.85
EEITEESLEESVGKDLYLIFRNLC | 3.32
EEITEESLEESVGKMLYLIFRNLC | 2
EEITEESLEESVGKTLYLIFRNLC | 2.06
EEITEESLEESVGKWLYLIFRNLC | 2.06
EEITCESLEESVGKPLYLIFRNLC | 2.14

Variant | protein stability index
EEITDESLEESVGKPLYLIFRNLC | 2.72
EEITWESLEESVGKPLYLIFRNLC | 1.85
EEITHESLEESVGKPLYLIFRNLC | 2.62
EEITKESLEESVGKPLYLIFRNLC | 2.31
EEITFESLEESVGKPLYLIFRNLC | 1.61
EEITIESLEESVGKPLYLIFRNLC | 1.56
EEITRESLEESVGKPLYLIFRNLC | 1.96
EEITPESLEESVGKPLYLIFRNLC | 1.98
EEITLESLEESVGKPLYLIFRNLC | 2.1
EEITEESLEESVGKPTYLIFRNLC | 3.23
EEITEESLEESVGKPEYLIFRNLC | 3.26
EEITEESLEESVGKPYYLIFRNLC | 2.78
EEITEESLEESVGKPNYLIFRNLC | 3.62
EEITEESLEESVGKPAYLIFRNLC | 2.99
EEITEESLEESVGKPVYLIFRNLC | 2.93
EEITEESLEESVGKPKYLIFRNLC | 3.39
DEITEESLEESVGKPLYLIFRNLC | 2.68
NEITEESLEESVGKPLYLIFRNLC | 2.88
REITEESLEESVGKPLYLIFRNLC | 2.2
PEITEESLEESVGKPLYLIFRNLC | 2.27
AEITEESLEESVGKPLYLIFRNLC | 3.14
EEITEESLEESVMKPLYLIFRNLC | 2.5
EEITEESLEESVHKPLYLIFRNLC | 2.23
EEITEESLEESVKKPLYLIFRNLC | 2.44

Variant | protein stability index
EEITEESLEESVVKPLYLIFRNLC | 1.98
EEITEESLEESVYKPLYLIFRNLC | 2.14
EEITEESLEESVEKPLYLIFRNLC | 3.12
EEITEESLEESVPKPLYLIFRNLC | 3.31
EEITEESLEESVGKPLYLIRRNLC | 4.23
EEITEESLEESVGKPLYLIQRNLC | 3.97
EEITEESLEESVGKPLYLIGRNLC | 4.07
EEITEESLEESVGKPLYLIKRNLC | 4.46
EEITEESLEESVGKPLYLIWRNLC | 2.35
EEITEESLEESVGKPLYLINRNLC | 4.33
EEITEESLEESVGKPLYLITRNLC | 3.6
EEITEESLEESVGKPLYLIHRNLC | 3.46
EEITEESLQESVGKPLYLIFRNLC | 2.44
EEITEESLWESVGKPLYLIFRNLC | 2.09
EEITEESLGESVGKPLYLIFRNLC | 2.72
EEITEESLFESVGKPLYLIFRNLC | 2.05
EEITEESLHESVGKPLYLIFRNLC | 2.35
EEITEESLTESVGKPLYLIFRNLC | 2.54
EEITEESLKESVGKPLYLIFRNLC | 2.5
EEITEESLEESVGKPLYLSFRNLC | 3.33
EEITEESLEESVGKPLYLYFRNLC | 2.75
EEITEESLEESVGKPLYLVFRNLC | 3.16
EEITEESLEESVGKPLYLLFRNLC | 2.86
EEITEESLEESVGKPLYLRFRNLC | 3.7

Variant | protein stability index
EEITEESLEESVGKPLYLQFRNLC | 4
EEITEESLEESVGKPLYLAFRNLC | 3.73
EEILEESLEESVGKPLYLIFRNLC | 2.28
EEIYEESLEESVGKPLYLIFRNLC | 2.29
EEIQEESLEESVGKPLYLIFRNLC | 2.71
EEINEESLEESVGKPLYLIFRNLC | 2.83
EEIVEESLEESVGKPLYLIFRNLC | 2.3
EEIIEESLEESVGKPLYLIFRNLC | 1.98
EEIAEESLEESVGKPLYLIFRNLC | 2.52
EEICEESLEESVGKPLYLIFRNLC | 2.46
EEIEEESLEESVGKPLYLIFRNLC | 2.41
EEIHEESLEESVGKPLYLIFRNLC | 2.99
EEITEESLEESVGKPLYLIFRTLC | 2.15
EEITEESLEESVGKPLYLIFRDLC | 3.4
EEITEESLEESVGKPLYLIFRKLC | 2.56
EEITEESLEESVGKPLYLIFRPLC | 2.54
EEITEESLEESVGKPLYLIFRRLC | 2.96
EEITEESLEESVGKPLYLIFRHLC | 2.64
EEITEESLEESVGKPLYLIFRLLC | 3.01
EEITEESLEESVGKPLYLIFRMLC | 2.33

Source: the supplement of paper PMC10567573
